According to the supplement of paper PMC9170038:

System: MS2 coat protein
Test: apparent KD of MS2 coat protein; designed switch direction (-1 OFF switch, 1 ON switch): -1; higher = weaker reporter binding
Outline: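 On Illumina chips, designed RNA switches with common flanks were made by stalled E. coli RNA polymerase. Titrations with SNAP-549-labelled MS2 coat protein, doubling from 0.7 or 1.5 nM to 3 µM, were done with no input, with 200 uM small-molecule ligand, or with an oligonucleotide input. Apparent KD is the median per design over clusters, from curve fits of normalised cluster fluorescence.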

[1] = Eterna round: R95, input ligand: microRNA oligo, concentration not stated
[2] = Eterna round: R95, input ligand: FMN 200 uM
[3] = Eterna round: R95, input ligand: none
[4] = input ligand: microRNA oligo, concentration not stated

| Sequence | apparent KD of MS2 coat protein (input ligand: FMN 200 uM) | apparent KD of MS2 coat protein (input ligand: none) | also measured |
| --- | --- | --- | --- |
| AAUAACAGAGGAUAUACUAUUUUAUGUGUUUAUUGUUUUGAACAUGAGGAUCACCCAUGUAGAAGGCUGAUUGA [JMF 78] (puzzle: Exclusion 2) | – | – | apparent KD of MS2 coat protein [1]: 40.7 nM |
| AAUGAUGAUGUGAGGAUAUACAUAGUUAGACCGUAGUAGAAGGCACAUGAGGAUCACCCAUGUAGAUGUAAGGU [JR_BME4_Sub002] (puzzle: Brourd's mod of Exclusion 4) | – | – | apparent KD of MS2 coat protein [2]: 26.3 nM; apparent KD of MS2 coat protein [1]: 17 nM; apparent KD of MS2 coat protein [3]: 17.7 nM |
| GAGGUUUCAGGAUAUACAUGAGGAUCACCCAUGUUAUUAGUGUGGAUUGGUGUCCUGCGUAGAAGGGAGUAUAA [Eternabot (L2) Solution 93] (Eterna round: R97, puzzle: Exclusion 3) | 65.7 nM | 57.2 nM | – |
| AGCCACAGAGGAUAUACAUACAUCCAGUAGUUAAGAAUACAACAUGAGGAUCACCCAUGUAGAAGGCUGUGGCA [Omei Ex2 BD B9] (Eterna round: R97, puzzle: Exclusion 2) | 348 nM | 103 nM | – |
| UAGCACGGAGGAUAUUGGCUCGCACACAUGAGGAUCACCCAUGUGACUUUAUACUUCCGCUAAGAAGGCCGUGUGG [Eternabot (L1) Solution 93] (Eterna round: R97, puzzle: Exclusion 5) | 13.2 nM | 14.3 nM | – |
| GGAUCGAGUGUGAGGAUAUGCUGGUCCUUGGAUCAGCAGAAGGCACAUGAGGAUCACCCAUGUGACUAAGAUCC [Eli bmx4 4.75] (Eterna round: R97, puzzle: Brourd's mod of Exclusion 4) | 322 nM | 29.8 nM | – |
| GAAAAGGUAGGAUAUACGAAAAAAAAGGGUAGAAAAAAAGCACAUGAGGAUCACCCAUGUAGAAGGACCAAAAG [salish99_ex2_r3_018] (Eterna round: R96, puzzle: Exclusion 2) | – | – | apparent KD of MS2 coat protein [4]: 29.6 nM |
| AAAUAAUAGAUAAAAUAAAACAUGAGGAUCACCCAUGUGGGAUGCUGAGGGUGAUACAAGCUUUUUGCUCGUCUUAU (puzzle: Sensor v3, turn-off variant 1) | – | – | apparent KD of MS2 coat protein [2]: 210 nM; apparent KD of MS2 coat protein [1]: 57.7 nM; apparent KD of MS2 coat protein [3]: 182 nM |
| UAAUAAUAGUCAGGAUAUAGUUAUUAUAAUAUACUAGAAGGGACACAUGAGGAUCACCCAUGUUUUAUAAUUUGUAAUUUAAAU [5th something] (Eterna round: R96, puzzle: Exclusion NG 1) | – | – | apparent KD of MS2 coat protein [4]: 16.2 nM |
| UAUUAACAAGCAUGAUCCCACAUGAGGAUCACCCAUGUGCUCGUCUUAUAAGGUACUGUGACGAAAGUCACGGUACC [Sensor 3, v1 - 85] (puzzle: Sensor v3, turn-off variant 1) | – | – | apparent KD of MS2 coat protein [2]: 132 nM; apparent KD of MS2 coat protein [1]: 139 nM; apparent KD of MS2 coat protein [3]: 144 nM |
| AAUAAUGGAGGAUAUACUAAAAUAUGAAUAAAAUAAAUAAAACAUGAGGAUCACCCAUGUAGAAGGCCAAAUAA [JMF's Not so obvious solution 2] (puzzle: Exclusion 2) | – | – | apparent KD of MS2 coat protein [2]: 20.9 nM; apparent KD of MS2 coat protein [1]: 22.7 nM; apparent KD of MS2 coat protein [3]: 27.7 nM |
| UUUUUUUGGCAAGGAUAUCCUGUGCGGUUCCGGCUCGUGUCUGUUACAUGAGGAUCACCCAUGUGGGAGAAGGUGCCUGUGGUU [Design 87] (Eterna round: R96, puzzle: Exclusion NG 2) | 82.8 nM | 32.8 nM | apparent KD of MS2 coat protein [4]: 36.8 nM |
| GUGAAGUGAGGAUAUACGAGAGAGGCUGAACCGGACGAGAAGUAGAAGGCACAUGAGGAUCACCCAUGUACGGG [JR_Exclu4_Sub023] (puzzle: Exclusion 4) | – | – | apparent KD of MS2 coat protein [1]: 164 nM |
| CAGUACUGAGGAUAUACAUGAGGAUCACCCAUGUGUUCCAGCUAGGAAACUAGCAAAUGUAGAAGGCAGUACUG [Salish 065 m8] (Eterna round: R97, puzzle: Exclusion 3) | 45.1 nM | 323 nM | – |
| CAGCUGAAAGUCAGGAUAUCUAGAGCUUCGGCUCUAGAGAAGGGACAUGAGGAUCACCCAUGUCACUCCAGCUG [BmEx4/3-A1] (Eterna round: R97, puzzle: Brourd's mod of Exclusion 4) | 18.9 nM | 18.2 nM | – |
| AACGAGGCAGGAUAUACAUGAGGAUCACCCAUGUGCUUGCAUGGCGUGGGACGUCAACGUAGAAGGGCCAUGCC [EX3 #67] (Eterna round: R97, puzzle: Exclusion 3) | 43.1 nM | 45.6 nM | – |

| Sequence | apparent KD of MS2 coat protein (input ligand: FMN 200 uM) | apparent KD of MS2 coat protein (input ligand: none) | also measured |
| --- | --- | --- | --- |
| UUGAUACAUACCUCCAUAAACAUGAGGAUCACCCAUGUAAGUGAGGAUAUAGAUUGUUUAGUAUACUAGAAGGCACUUAGAUAU [JR_ExcNG3_Sub045] (Eterna round: R96, puzzle: Exclusion NG 3) | – | – | apparent KD of MS2 coat protein [4]: 9.11 nM |
| CAUGUGUAAGGAUAUGACAAUGGUAUCUUCGGAUACCAUUGUCAGAAGGUACAUGAGGAUCACCCAUGUAGAUC [Ex4-3: 16] (puzzle: Exclusion 4) | – | – | apparent KD of MS2 coat protein [1]: 48.6 nM |
| ACUGGUGCAGGAUAUACAUGAGGAUCACCCAUGUGAUCAGCAGUCCUCGGACUGCAAUGUAGAAGGGCACCAGU [E3/1-D1] (Eterna round: R97, puzzle: Exclusion 3) | 105 nM | 804 nM | – |
| GCGUACUGAGGAUAUACAUGAGGAUCACCCAUGUGACUAAGAUUUUAGUGAUGAUUUUGUAGAAGGCAGUAUGC [JR_Ex3_Sub061] (Eterna round: R97, puzzle: Exclusion 3) | 344 nM | 91.4 nM | – |
| ACGAAAGCAAGCAAGUGAAACAUGAGGAUCACCCAUGUCCUCAUUUGCUCGUCUUAUAAAAGCUAUCGAAAGAUAGC [Mat - Sensor v3 - turn-off var 1 - Eli Mod - D47] (puzzle: Sensor v3, turn-off variant 1) | – | – | apparent KD of MS2 coat protein [2]: 11.9 nM; apparent KD of MS2 coat protein [1]: 157 nM; apparent KD of MS2 coat protein [3]: 13.2 nM |
| AAAGAUCAGGUGAGGAUAUACAUAUCGAAAGAUAUGUAGAAGGCACAUGAGGAUCACCCAUGUAUAAGGUUACC [Alacar 2] (Eterna round: R97, puzzle: Brourd's mod of Exclusion 4) | 313 nM | 52.1 nM | – |
| CGUUCGCGAGGAUAUGCAUUCGAGUCCACUACGUGUCUGGGACUUGAGGAUCACCCAAGUAGAAGGCGCCUAAA [salish99_ex2_r4_652] (Eterna round: R97, puzzle: Exclusion 2) | 514 nM | 577 nM | – |
| ACUUAUAGAGGAUAUACAGUUUAUUACAUGAGGAUCACCCAUGUUCUUCAAUGUCCUGAAGUAGAAGGCUAAGGAA [Ex5 Malc#5 mod4] (Eterna round: R97, puzzle: Exclusion 5) | 19.7 nM | 16.3 nM | – |
| AGAUUACAUGAGGAUAUCGUAUUGGAUAUAGUGCGAGAAGGCAUGACAUGAGGAUCACCCAUGUAGUGUUGGGA [JR_Ex6_Sub010] (Eterna round: R97, puzzle: Exclusion 6) | 117 nM | 187 nM | – |
| GCGGAAAACUUAGGAUAUCAGGGCUGUACAUGAGGAUCACCCAUGUGAUAGCUCUAACACGGUCCUGAGAAGGGAGAGCCCGGA [Biorenen] (Eterna round: R96, puzzle: Exclusion NG 2) | 109 nM | 73 nM | apparent KD of MS2 coat protein [4]: 49.7 nM |
| GCAUGGAAAGUGAGGAUAUACCACUGGAUACAGUGGUAGAAGGCACAUGAGGAUCACCCAUGUUUCUACCAUGC [Fiskers BMX 4 - 40] (puzzle: Brourd's mod of Exclusion 4) | – | – | apparent KD of MS2 coat protein [1]: 12.7 nM |
| UUCGUGUGAGGAUAUCGAUUAUGGAAGUCUAGAUCCAUACGCGAGAAGGCACAUGAGGAUCACCCAUGUAAUGG [jl-ex4-4.34 ViennaUCT mod] (Eterna round: R97, puzzle: Exclusion 4) | 38 nM | 227 nM | – |
| CACCGUAACAGAGGAUAUGAUACAUGAGGAUCACCCAUGUAAUAAAUGAGAAUUUCGAAUGUACCUCAGAAGGCUGAAACCGGC [Ostricism 81 - Jieux - Exclusion NG 2] (Eterna round: R96, puzzle: Exclusion NG 2) | 115 nM | 48 nM | apparent KD of MS2 coat protein [4]: 38.5 nM |
| GAUAUGGGAGUUAGGAUAUGUCGCCCGAACGGGUAAUAGAAGGGACUUGAGGAUCACCCAAGUCAUAAAGAAUA [Rainan] (Eterna round: R97, puzzle: Brourd's mod of Exclusion 4) | 11.6 nM | 14.6 nM | – |
| CGUCUGUAAGGAUAUGGUUGCAUCAACAUGAGGAUCACCCAUGUAACGUGGGACUAGUGAUUAGAAGGUACGAACG [EX5 #60] (Eterna round: R97, puzzle: Exclusion 5) | 93.8 nM | 118 nM | – |
| GGUCGACAUGAGGAUCACCCAUGUCAGGAUAUCGUCACUGGAGCCUCGGCUCCAGUGACGAGAAGGGACAUAAU [E1/14-A2] (Eterna round: R97, puzzle: Exclusion 1) | 23.4 nM | 31.4 nM | – |
